This is an account of results in patent US8158851B2, “Transgenic high tryptophan plants” (Monsanto Technology LLC, priority 2002, dated 2012).

Like-named read-outs stand apart in the source and are kept apart here.

The target of data set [1] is T1, Rhizobium meliloti anthranilate synthase, monomeric (SEQ ID NO: 7) (Rhizobium meliloti, UniProt P15395).
T1 construct: made in house; host or cells: E. coli BL-21, plasmid pMON66596 (pSE280)
T1 sequence (P15395 1-729): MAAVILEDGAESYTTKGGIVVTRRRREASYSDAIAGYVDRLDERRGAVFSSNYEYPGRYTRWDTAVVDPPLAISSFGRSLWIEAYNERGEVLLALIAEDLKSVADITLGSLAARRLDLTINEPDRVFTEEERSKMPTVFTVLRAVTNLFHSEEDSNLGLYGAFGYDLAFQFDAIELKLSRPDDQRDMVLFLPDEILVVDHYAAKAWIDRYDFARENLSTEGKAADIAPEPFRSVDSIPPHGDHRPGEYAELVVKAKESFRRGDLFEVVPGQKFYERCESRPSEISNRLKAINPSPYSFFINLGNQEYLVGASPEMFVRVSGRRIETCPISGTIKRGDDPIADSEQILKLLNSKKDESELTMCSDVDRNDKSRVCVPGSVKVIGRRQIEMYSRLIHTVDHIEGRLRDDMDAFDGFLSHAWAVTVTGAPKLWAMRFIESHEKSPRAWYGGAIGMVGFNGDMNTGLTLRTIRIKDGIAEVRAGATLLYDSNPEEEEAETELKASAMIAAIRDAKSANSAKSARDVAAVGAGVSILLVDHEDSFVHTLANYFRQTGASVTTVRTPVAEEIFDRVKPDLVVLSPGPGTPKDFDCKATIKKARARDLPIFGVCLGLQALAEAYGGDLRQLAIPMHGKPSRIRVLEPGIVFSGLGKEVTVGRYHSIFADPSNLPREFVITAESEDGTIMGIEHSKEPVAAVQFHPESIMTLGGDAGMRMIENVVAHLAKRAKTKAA
Nature of the data set: Activity assay of crude cell extract by HPLC. To be noted: BL-21 cells with pMON66596, HPLC, read-out: ICso (trp). It is filed as biochemical. An excerpt: pMON66596 was transformed into BL-21 cells and induced with IPTG to express protein.

Data set [2] deals with Ruta graveolens anthranilate synthase. The following applies: Bohlmann et al. 1996; cited from earlier work.
In the next data set the test system is Agro AS. The data set can be described thus: Agro AS enzyme assay, HPLC end-point, desalted extracts of individual soybean seeds. To be noted: R1 soy seeds carrying the mutant allele. It is filed as biochemical, Agrobacterium tumefaciens. On the procedure: The specific activity of anthranilate synthase was measured in eleven transformation events carrying the pMON58120 construct. Individual soybean immature seeds were analyzed using an HPLC-based end-point assay based on the method described by C. Paulsen (J. Chromatogr., 547:155-160 (1991)). Briefly, desalted extracts were generated from individual seeds in grinding buffer (100 mM Tris pH7.5, 10% glycerol, 1 mM EDTA, 1 mM DTT) and incubated for 30 min with reaction buffer (100 mM tris pH 7.5, 1 mM chorismate, 20 mM glutamine, and 10 mM MgCl2). Agro AS activity was measured in the presence or absence of 25 mM trp. The reaction was stopped with phosphoric acid and the amount of anthranilate formed was quantified by HPLC using a fluorescence detector set at 340 nm/excitation and 410 nm/emission.

Data set [3] relates to Agrobacterium tumefaciens AS. Nature of the data set: Anthranilate synthase enzyme assay and kinetic analysis of purified enzymes. It is filed as biochemical. To be noted: for Km: 25° C. As to the method: Agrobacterium tumefaciens AS wild type and mutant enzymes were expressed in E. coli as described in Example 1. The purification of all the Agrobacterium tumefaciens AS enzymes, including wild type and mutants thereof, was performed at 4° C. The cells (approximate wet weight of 1 g) were suspended in 20 ml of purification buffer (50 mM potassium phosphate, pH 7.3, 10 mM MgCl2, 10 mM 2-mercaptoethanol, 10% glycerol) and lysed by ultrasonication (Branson sonifier Cell Disruptor, W185). Supernatant was collected after centrifugation of the homogenate at 20,000×g for 15 min. The supernatant was subjected to ammonium sulfate fractionation (30 to 65% saturation). The precipitate was collected after centrifugation at 20,000×g for 15 min and dissolved in 3 ml of the purification buffer and then loaded as a whole on an Econo-Pac 10DG desalting column, pre-equilibrated with the same buffer. Fractions containing the enzyme were detected by the developed assay and pooled. The pooled enzyme (4.3 mls) was loaded on a 10 ml DEAF Sephacel (Pharmacia Biotech) column (1.5×7.5 cm) equilibrated with the same buffer. The column was washed with 30 ml of the purification buffer and the enzyme was eluted with 30 ml of 50 mM NaCl in the same buffer. Fractions containing high AS activity were pooled and precipitated by 65% ammonium sulfate saturation and isolated and desalted as above. Fractions containing the enzyme were pooled and stored at −80° C.
The standard assay for Agrobacterium tumefaciens AS was performed at 25° C. in an assay buffer containing 100 mM potassium phosphate, pH 7.0, 10 mM MgCl2, 1 mM dithiothreitol, 200 μM chorismate and 10 mM L-glutamine. The reaction was started by adding 30 μl of enzyme to the reaction mixture and mixing. The formation of anthranilate was directly monitored by the absorbance increase at 320 m for 3 minutes. Initial rate of reaction was calculated as unit absorbance increase per second based on the slope of the absorbance change over the reaction time. Km for chorismate (Km^Cho) was determined in the total volume of 1 ml assay buffer containing 100 mM potassium phosphate, pH 7.0, 10 mM MgCl2, 1 mM dithiothreitol with 10 mM L-glutamine and varying the concentration of chorismate between 2.5-100 μM chorismate. The Km for glutamine (Km^Gln) was determined in the total volume of 1 ml assay buffer containing 100 mM potassium phosphate, pH 7.0, 10 mM MgCl2, 1 mM dithiothreitol with 200 μM chorismate and varying the concentration of L-glutamine between 0.1-2 mM L-glutamine. IC50 for tryptophan (IC50^Trp) was determined with in the total volume of 1 ml assay buffer containing 100 mM potassium phosphate, pH 7.0, 10 mM MgCl2, 1 mM dithiothreitol, 10 mM L-glutamine, 200 μM chorismate and varying the concentration of L-tryptophan between 0.1-10 mM L-tryptophan. Kinetic parameters and IC50 of AS were calculated after fitting the data to a non-linear regression program (GraFit).

The test system of the next data set is soy seed. Nature of the data set: Free amino acid analysis of soy seed (tryptophan content). It is filed as in vivo, Glycine max. The following applies: R1 soy seeds expressing the mutant protein. On the procedure:
Amino Acid Extraction: About 50 mg of crushed soy seed (5 mg of Arabidopsis) material was placed in each centrifuge vial. One milliliter of 5% trichloroacetic acid was added to each sample (100 μl for Arabidopsis). The samples were vortexed, and allowed to sit, with agitation, at room temperature for 15 min. They were then microcentrifuged for 15 min at 14000 rpm. Some of the supernatant was then removed, placed in a HPLC vial and sealed. Samples were kept at 4° C. in the analysis queue.
Amino Acid Analysis: The reagents utilized for amino acid analysis included the OPA reagent (o-phthalaldehyde and 3-mercaptopropionic acid in borate buffer (Hewlett-Packard, PN 5061-3335)) where the borate buffer (0.4 N in water, pH 10.2). The analysis was performed using the Agilent 1100 series HPLC system as described in the Agilent Technical Publication, “Amino Acid Analysis Using Zorbax Eclipse-AAA Columns and the Agilent 1100 HPLC”, Mar. 17, 2000. First, 0.5 μl of the sample was derivatized with 2.5 μl of OPA reagent in 10 μl of borate buffer. Second, the derivative is injected onto a Eclipse XDB-C18 5 μm, 4.6×150 mm column using a flow rate of 1.2 ml/min. Amino acid concentrations were measured using fluorescence: excitation at 340 nm, emission at 450 nm. Elution was with a gradient of HPLC Buffers A and B according to Table A, where HPLC Buffer A was 40 mM Na2HPO4, pH=7.8 and HPLC Buffer B was 9:9:2::Methanol:Acetonitrile:Water.
Amino acid standards were prepared from the dry chemicals, using all amino acids of interest. Proline analysis required an additional derivatization step with 9-fluorenylmethyl-chloroformate (FMOC). Amino acid standards were also sometimes purchased in concentrations ranging from 0 to 100 μg/ml. Samples were reported in μg/g of seed powder.
Mature R1 seed is produced and analyzed for free amino acid content using fluorescence detection as described in Agilent Technologies Technical Bulletin REV14. Five seeds are chosen for single seed analysis from each event. […] The highest levels of tryptophan have a negative impact on germination.

Consider `N[C@@H](Cc1c[nH]c2ccccc12)C(=O)O` [tryptophan, L-tryptophan], for which the IC50 in data set [1] was around 10 µM.

B1: Ruta graveolens anthranilate synthase α-subunit: Ruta graveolens anthranilate synthase α-subunit isoenzyme, Genbank GI 960291 (protein, listed as Ruta graveolens)
chain: MSAAATSMQSLKFSNRLVPPSRRLSPVPNNVTCNNLPKSAAPVRTVKCCASSWNSTINGAAATTNGASAASNGASTTTTTYVSDATRFIDSSKRANLVPLYRCIFADHLTPVLAYRCLVQEDDKETPSFLFESVEPGRISTVGRYSVVGAHPVMEVIAKDNMVTVMDHEKGSLVEEVVDDPMEIPRRISEDWKPQIIDDLPEAFCGGWVGFFSYDTVRYVEKKKLPFSKAPQDDRNLADMHLGLYNDVIVFDHVEKKVYVIHWVRLNQQSSEEKAYAEGLEHLERLVSRVQDENTPRLAPGSIDLHTGHFGPPLKKSNMTCEEYKMAVLAAKEHIQAGDIFQIVLSQRFERRTFADPFEVYRALRVVNPSPYMTYMQARGCVLVASSPEILTRVKKNKIVNRPLAGTARRGRTTEEDEMLETQLLKDAKQCAEHVMLVDLGRNDVGKVSKSGSVKVEKLMNVERYSHVMHISSTVTGELQDNLSCWDALRAALPVGTVSGAPKVKAMELIDELEVNRRGPYSGGFGGISFTGDMDIALALRTIVFQTGTRYDTMYSYKNATKRRQWVAYLQAGAGIVADSDPDDEHRECQNKAAGLARAIDLAESAFVNKSSS
As for B1, the “sensitivity to tryptophan inhibition” value in data set [2] was “less sensitive to tryptophan inhibition”.

B2: F298W (protein)
chain: MVTIIQDDGAETYETKGGIQVSRKRRPTDYANAIDNYIEKLDSHRGAVFSSNYEYPGRYTRWDTAIVDPPLGISCFGRKMWIEAYNGRGEVLLDFITEKLKATPDLTLGASSTRRLDLTVNEPDRVFTEEERSKIPTVFTALRAIVDLFYSSADSAIGLFGAFGYDLAFQFDAIKLSLARPEDQRDMVLFLPDEILVVDHYSAKAWIDRYDFEKDGMTTDGKSSDITPDPFKTTDTIPPKGDHRPGEYSELVVKAKESFRRGDLFEVVPGQKFMERCESNPSAISRRLKAINPSPYSWFINLGDQEYLVGASPEMFVRVSGRRIETCPISGTIKRGDDPIADSEQILKLLNSKKDESELTMCSDVDRNDKSRVCEPGSVKVIGRRQIEMYSRLIHTVDHIEGRLRDDMDAFDGFLSHAWAVTVTGAPKLWAMRFIEGHEKSPRAWYGGAIGMVGFNGDMNTGLTLRTIRIKDGIAEVRAGATLLNDSNPQEEEAETELKASAMISAIRDAKGTNSAATKRDAAKVGTGVKILLVDHEDSFVHTLANYFRQTGATVSTVRSPVAADVFDRFQPDLVVLSPGPGSPTDFDCKATIKAARARDLPIFGVCLGLQALAEAYGGELRQLAVPMHGKPSRIRVLEPGLVFSGLGKEVTVGRYHSIFADPATLPRDFIITAESEDGTIMGIEHAKEPVAAVQFHPESIMTLGQDAGMRMIENVVVHLTRKAKTKAA
modifications: An A. tumefaciens mutant.
With B2, in the data set on Agro AS, the “tryptophan-resistant anthranilate synthase activity” value is reported as “Very high levels”. The Km amounted to 140 µM in data set [3] (pH 7.0, 200 μM chorismate, L-glutamine varied, read-out: Km^Gln) and 18 µM in data set [3] (pH 7.0, 10 mM L-glutamine, chorismate varied, read-out: Km^Cho). Moreover, the IC50 in data set [3] (inhibition by L-tryptophan, 10 mM L-glutamine, 200 μM chorismate) amounted to 450 µM. In data set [3] (purified enzyme from E. coli), the kcat came to 0.44 s⁻¹. Moreover, the amounts of tryptophan entry in the data set on soy seed is “very high amounts of tryptophan”.

B3: S51F (protein)
chain: MVTIIQDDGAETYETKGGIQVSRKRRPTDYANAIDNYIEKLDSHRGAVFSFNYEYPGRYTRWDTAIVDPPLGISCFGRKMWIEAYNGRGEVLLDFITEKLKATPDLTLGASSTRRLDLTVNEPDRVFTEEERSKIPTVFTALRAIVDLFYSSADSAIGLFGAFGYDLAFQFDAIKLSLARPEDQRDMVLFLPDEILVVDHYSAKAWIDRYDFEKDGMTTDGKSSDITPDPFKTTDTIPPKGDHRPGEYSELVVKAKESFRRGDLFEVVPGQKFMERCESNPSAISRRLKAINPSPYSFFINLGDQEYLVGASPEMFVRVSGRRIETCPISGTIKRGDDPIADSEQILKLLNSKKDESELTMCSDVDRNDKSRVCEPGSVKVIGRRQIEMYSRLIHTVDHIEGRLRDDMDAFDGFLSHAWAVTVTGAPKLWAMRFIEGHEKSPRAWYGGAIGMVGFNGDMNTGLTLRTIRIKDGIAEVRAGATLLNDSNPQEEEAETELKASAMISAIRDAKGTNSAATKRDAAKVGTGVKILLVDHEDSFVHTLANYFRQTGATVSTVRSPVAADVFDRFQPDLVVLSPGPGSPTDFDCKATIKAARARDLPIFGVCLGLQALAEAYGGELRQLAVPMHGKPSRIRVLEPGLVFSGLGKEVTVGRYHSIFADPATLPRDFIITAESEDGTIMGIEHAKEPVAAVQFHPESIMTLGQDAGMRMIENVVVHLTRKAKTKAA
modifications: An A. tumefaciens mutant.
For the molecule B3, the “tryptophan-resistant anthranilate synthase activity” value in the data set on Agro AS was “Very high levels”. Also, the amounts of tryptophan result with soy seed is reported as “very high amounts of tryptophan”.

What is called Km is the substrate concentration at which the rate is half of its maximum. What is called kcat is the maximal rate divided by the concentration of active sites.
